The values below come from patent publication US20110212106A1 (INSTITUTE FOR RESEARCH IN BIOSCIENCE, published 2011).

This assay concerns the target T1, peptide … (HIV-1).
T1 construct: also called wt peptide
Put plainly: Pepscan ELISA. (In general: In an ELISA, binding on a coated surface is turned into a signal by an enzyme label.)

B1: HGN194 (antibody, V domains shown)
VH: EVQLVQSGAEVKKPGESLKISCYGSGYNFNDYWIGWVRQMPGKGLEWMGMIYPDDSDTKYSAAFEGQVTLSADKSISTAYLQWTSLRASDTATYYCARLDGDYADFDSWGQGTLVTVSS
VL: QSVLTQPPSVSAAPGQKVTISCSGTNSNLGDKFVSWYQQLPGTAPRLLIYDNDKRPSGIPDRFSGSKSGASATLAITGLQTGDEADYYCGTWDNSLSALFGGGTKLTVL
notes: also called HGN194.12
On to B1, for which the binding result was “binds”.
